According to patent publication US20180346600A1 (AJOU UNIVERSITY INDUSTRY ACADEMIC COOPERATION FOUNDATION, published 2018):
Where a chain is given by its changes, count along the chain named. Numbers in names are those of the source.

Experiments:
[1] = molecular target: T1, displayed FcCH3A, W-VT (K409W), on yeast cell surface (human, UniProt P0DOX5 227-449 = IgG part); assay: flow cytometry histogram (PE, FL2-H) of diploid yeast: Flag-tagged secreted FcCH3B held on displayed FcCH3A, anti-Flag mouse mAb and PE anti-mouse antibody
T1 construct: EU 226 and 229 counted from the entry's start at EU 225; also called W-VT CH3A chain (yeast)
T1 Fc: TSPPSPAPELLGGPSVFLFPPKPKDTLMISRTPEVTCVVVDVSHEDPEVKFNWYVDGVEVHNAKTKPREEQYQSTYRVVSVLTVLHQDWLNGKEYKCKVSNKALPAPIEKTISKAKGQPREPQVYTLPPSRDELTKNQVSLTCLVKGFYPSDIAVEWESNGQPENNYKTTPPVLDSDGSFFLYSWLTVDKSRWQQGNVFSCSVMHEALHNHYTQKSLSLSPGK
Experimental: Specifically, the diploid in which the expression of the heterodimeric heavy chain constant region was induced was reacted with an antibody recognizing flag-tag included in the secreted FcCH3B (anti-Flag mouse mAb, F3165) (Sigma-Aldrich) and an antibody conjugated with PE (phycoerythrin conjugated anti-mouse mAb, sc-3738) (Santa Cruz biotechnology), and a signal of PE was analyzed by flow cytometry.

[2] = molecular target: T2, displayed FcCH3A, B121 (D399E/K409W), on yeast cell surface (human, UniProt P0DOX5 227-449 = IgG part); assay: flow cytometry of diploid yeast: MFI of Flag-tagged secreted FcCH3B held on displayed FcCH3A (anti-Flag mouse mAb and PE anti-mouse antibody), normalised to EW-RVT = 100 %
T2 construct: also called B121 CH3A chain (yeast)
T2 Fc: T1 Fc with D175E

[3] = molecular target: T3, displayed FcCH3A, A109 (K370M/K409W), on yeast cell surface (human, UniProt P0DOX5 227-449 = IgG part); assay: as above
T3 construct: also called A109 CH3A chain (yeast)
T3 Fc: T1 Fc with K146M

[4] = molecular target: T4, displayed FcCH3A, A107 (K370E/K409W), on yeast cell surface (human, UniProt P0DOX5 227-449 = IgG part); assay: as above
T4 construct: also called A107 CH3A chain (yeast)
T4 Fc: T1 Fc with K146E

[5] = molecular target: T5, displayed FcCH3A, A146 (K370D/K409W), on yeast cell surface (human, UniProt P0DOX5 227-449 = IgG part); assay: as above
T5 construct: also called A146 CH3A chain (yeast)
T5 Fc: T1 Fc with K146D

[6] = molecular target: T6, displayed FcCH3A, EW-RVT (K360E/K409W), on yeast cell surface (human, UniProt P0DOX5 227-449 = IgG part); assay: as above
T6 construct: also called EW-RVT CH3A chain (yeast)
T6 Fc: T1 Fc with K136E

[7] = molecular target: T7, displayed FcCH3A, A108 (K370E/K409W), on yeast cell surface (human, UniProt P0DOX5 227-449 = IgG part); assay: as above
T7 construct: also called A108 CH3A chain (yeast)
T7 Fc: T1 Fc with K146E

[8] = molecular target: the molecule itself; assay: HEK293-F co-expression, Protein A purification, non-reducing SDS-PAGE densitometry
Source text: The CH3 domain mutant pair of the individual clones selected from the LibA2 and LibB2 libraries in Example 8 above was cloned into an animal cell expression vector so that the CH3A mutant was expressed into the scFv-FcCH3A format and the CH3B mutant was expressed into the FcCH3B format.
The EW-RVT and A107_{w/oW-VT}, B168_{w/oW-VT} mutant pairs were used as control groups.

[9] = molecular target: the molecule itself; assay: as above; remark: listed apart in the source
Source text: The pcDNA3.1 (+)-scFv-FcCH3A and pcDNA3.1 (+)-FcCH3B animal cell expression vectors that were constructed using the HEK293-F system (Invitrogen) were used to produce antibodies by transient transfection, and the heterodimer formation ability was compared. Specifically, a mixture of an expression vector and polyethylenimine (PEI) (Polyscience) was transfected into HEK293-F cells (Invitrogen) that were suspension-grown on a serum-free FreeStyle 293 expression medium (Invitrogen) in a shaking flask (Corning). When transfecting 30 ml of the mixture in the shaking flask, HEK293-F cells were seeded at a density of 1.0×10⁶ cell/ml in 30 ml of medium and cultured at 125 rpm and 8% CO₂. […] Then, the reacted mixed medium was added to 30 ml of the previously seeded cells and cultured at 125 rpm and 8% CO₂ for 6 days. The cell culture supernatant collected with reference to the standard protocol was applied to Protein A Sepharose column (GE healthcare), washed with PBS (pH 7.4). The antibody was eluted at pH 3.0 with 0.1 M glycine buffer and immediately neutralized with 1 M Tris buffer. The eluted antibody fraction was concentrated using an Amicon Ultra (MILLIPORE) centrifugal concentrator after the buffer was exchanged with PBS (pH 7.4) using a Dextran Desalting Column (Thermo Scientific Pierce). The purified antibody was quantified by BCA technique.
The W-VT and EW-RVT mutants were used as control groups.

B1: secreted FcCH3B, W-VT (D399V/F405T), from yeast (other)
chain: T1 Fc with D175V, F181T, W185K
notes: also called W-VT CH3B chain (yeast); not shown: flag-tag
Question: Does B1 bind [1]?
Answer: binds

B2: secreted FcCH3B, B121 (K392E/D399V/F405T), from yeast (other)
chain: T1 Fc with K168E, D175V, F181T, W185K
notes: also called B121 CH3B chain (yeast); not shown: flag-tag
Question: Does B2 bind [2]?
Answer: binds

B3: secreted FcCH3B, A109 (E357M/S364W/D399V/F405T), from yeast (other)
chain: T1 Fc with E133M, S140W, D175V, F181T, W185K
notes: also called A109 CH3B chain (yeast); not shown: flag-tag
Question: Does B3 bind [3]?
Answer: binds

B4: secreted FcCH3B, A107 (E357N/D399V/F405T), from yeast (other)
chain: T1 Fc with E133N, D175V, F181T, W185K
notes: also called A107 CH3B chain (yeast); not shown: flag-tag
Question: Does B4 bind [4]?
Answer: binds

B5: secreted FcCH3B, A146 (E357M/D399V/F405T), from yeast (other)
chain: T1 Fc with E133M, D175V, F181T, W185K
notes: also called A146 CH3B chain (yeast); not shown: flag-tag
Question: Does B5 bind [5]?
Answer: binds

B6: secreted FcCH3B, EW-RVT (Q347R/D399V/F405T), from yeast (other)
chain: T1 Fc with Q123R, D175V, F181T, W185K
notes: also called EW-RVT CH3B chain (yeast); not shown: flag-tag
Question: Does B6 bind [6]?
Answer: binds

B7: secreted FcCH3B, A108 (E357I/S364T/D399V/F405T), from yeast (other)
chain: T1 Fc with E133I, S140T, D175V, F181T, W185K
notes: also called A108 CH3B chain (yeast); not shown: flag-tag
Question: Does B7 bind [7]?
Answer: binds

B8: FcCH3B, B240 (D399G/K392G/K409M) (other)
chain: T1 Fc with S2C, S5C, Q73N, K168G, D175G, W185M
notes: also called B240 CH3B chain
Question: B8 was tested. Which “(FC)2 (homodimer)(%)” value [8] did it give?
Answer: 11.9%

B9: FcCH3B, EW-RVT (Q347R/D399V/F405T) (other)
chain: T1 Fc with S2C, S5C, Q73N, Q123R, D175V, F181T, W185K
notes: also called EW-RVT CH3B chain
Question: With B9 as the binder, how does the “(Fc)2 (homodimer) (%)” value [9] read?
Answer: 1.6%

Question: What about the “(FC)2 (homodimer)(%)” value [8] of the same binder?
Answer: 1.6%

B10: FcCH3B, B135 (K392S/K409L/D399V/F405T) (other)
chain: T1 Fc with S2C, S5C, Q73N, K168S, D175V, F181T, W185L
notes: also called B135 CH3B chain
Question: For B10, which “(Fc)2 (homodimer) (%)” value [9] is on record?
Answer: 27.9%

B11: FcCH3B, B215 (D399W/K392G/K409M) (other)
chain: T1 Fc with S2C, S5C, Q73N, K168G, D175W, W185M
notes: also called B215 CH3B chain
Question: For B11, which “(FC)2 (homodimer)(%)” value [8] is on record?
Answer: 20%

B12: FcCH3B, A109 (E357M/S364W/D399V/F405T) (other)
chain: T1 Fc with S2C, S5C, Q73N, E133M, S140W, D175V, F181T, W185K
notes: also called A109 CH3B chain
Question: Which “(Fc)2 (homodimer) (%)” value [9] does the source give for B12 here?
Answer: 5.8%

B13: FcCH3B, B168 (K392G/K409M/D399V/F405T) (other)
chain: T1 Fc with S2C, S5C, Q73N, K168G, D175V, F181T, W185M
notes: also called B168 CH3B chain
Question: B13 was tested. Which “(Fc)2 (homodimer) (%)” value [9] did it give?
Answer: 21.1%

B14: FcCH3B, B121 (K392E/D399V/F405T) (other)
chain: T1 Fc with S2C, S5C, Q73N, K168E, D175V, F181T, W185K
notes: also called B121 CH3B chain
Question: Which “(Fc)2 (homodimer) (%)” value [9] does the source give for B14 here?
Answer: 25.2%

B15: FcCH3B, B239 (D399S/K392G/K409M) (other)
chain: T1 Fc with S2C, S5C, Q73N, K168G, D175S, W185M
notes: also called B239 CH3B chain
Question: How did the “(FC)2 (homodimer)(%)” value [8] turn out when B15 was run?
Answer: 20.3%

B16: FcCH3B, A107 (E357N/D399V/F405T) (other)
chain: T1 Fc with S2C, S5C, Q73N, E133N, D175V, F181T, W185K
notes: also called A107 CH3B chain
Question: Which “(Fc)2 (homodimer) (%)” value [9] does the source give for B16 here?
Answer: 2.4%

B17: FcCH3B, B256 (D399V/K392G/K409M) (other)
chain: T1 Fc with S2C, S5C, Q73N, K168G, D175V, W185M
notes: also called B256 CH3B chain
Question: With B17 as the binder, how does the “(FC)2 (homodimer)(%)” value [8] read?
Answer: 16.7%

B18: FcCH3B, A108 (E357I/S364T/D399V/F405T) (other)
chain: T1 Fc with S2C, S5C, Q73N, E133I, S140T, D175V, F181T, W185K
notes: also called A108 CH3B chain
Question: Which “(Fc)2 (homodimer) (%)” value [9] does the source give for B18 here?
Answer: 13%

B19: FcCH3B, B212 (D399G/K392G/K409M) (other)
chain: T1 Fc with S2C, S5C, Q73N, K168G, D175G, W185M
notes: also called B212 CH3B chain
Question: With B19 as the binder, how does the “(FC)2 (homodimer)(%)” value [8] read?
Answer: 33.8%

B20: FcCH3B, B235 (D399C/K392G/K409M) (other)
chain: T1 Fc with S2C, S5C, Q73N, K168G, D175C, W185M
notes: also called B235 CH3B chain
Question: For B20, which “(FC)2 (homodimer)(%)” value [8] is on record?
Answer: 6.9%

B21: FcCH3B, A146 (E357M/D399V/F405T) (other)
chain: T1 Fc with S2C, S5C, Q73N, E133M, D175V, F181T, W185K
notes: also called A146 CH3B chain
Question: B21 was tested. Which “(Fc)2 (homodimer) (%)” value [9] did it give?
Answer: 14.6%
